Reference: patent publication US20220040319A1, “METHODS OF TREATING OCULAR CANCER USING ANTI-MET ANTIBODIES AND BISPECIFIC ANTIGEN BINDING MOLECULES THAT BIND MET” (Regeneron Pharmaceuticals, Inc., priority 2019, published 2022)

Legend:
[1] = target: MET (c-Met, hepatocyte growth factor receptor) on cells (human) (UniProt P08581)
[2] = target: MET (c-Met, hepatocyte growth factor receptor) on cells (human) (UniProt P08581); remark: listed apart in the source
[3] = target: human MET (exon14 skip mutation) on NCI-H596 cells (human) (UniProt P08581); assay: cell-based or functional assay
Chain of human MET (exon14 skip mutation) on NCI-H596 cells (human) (P08581 25-1390, change not shown): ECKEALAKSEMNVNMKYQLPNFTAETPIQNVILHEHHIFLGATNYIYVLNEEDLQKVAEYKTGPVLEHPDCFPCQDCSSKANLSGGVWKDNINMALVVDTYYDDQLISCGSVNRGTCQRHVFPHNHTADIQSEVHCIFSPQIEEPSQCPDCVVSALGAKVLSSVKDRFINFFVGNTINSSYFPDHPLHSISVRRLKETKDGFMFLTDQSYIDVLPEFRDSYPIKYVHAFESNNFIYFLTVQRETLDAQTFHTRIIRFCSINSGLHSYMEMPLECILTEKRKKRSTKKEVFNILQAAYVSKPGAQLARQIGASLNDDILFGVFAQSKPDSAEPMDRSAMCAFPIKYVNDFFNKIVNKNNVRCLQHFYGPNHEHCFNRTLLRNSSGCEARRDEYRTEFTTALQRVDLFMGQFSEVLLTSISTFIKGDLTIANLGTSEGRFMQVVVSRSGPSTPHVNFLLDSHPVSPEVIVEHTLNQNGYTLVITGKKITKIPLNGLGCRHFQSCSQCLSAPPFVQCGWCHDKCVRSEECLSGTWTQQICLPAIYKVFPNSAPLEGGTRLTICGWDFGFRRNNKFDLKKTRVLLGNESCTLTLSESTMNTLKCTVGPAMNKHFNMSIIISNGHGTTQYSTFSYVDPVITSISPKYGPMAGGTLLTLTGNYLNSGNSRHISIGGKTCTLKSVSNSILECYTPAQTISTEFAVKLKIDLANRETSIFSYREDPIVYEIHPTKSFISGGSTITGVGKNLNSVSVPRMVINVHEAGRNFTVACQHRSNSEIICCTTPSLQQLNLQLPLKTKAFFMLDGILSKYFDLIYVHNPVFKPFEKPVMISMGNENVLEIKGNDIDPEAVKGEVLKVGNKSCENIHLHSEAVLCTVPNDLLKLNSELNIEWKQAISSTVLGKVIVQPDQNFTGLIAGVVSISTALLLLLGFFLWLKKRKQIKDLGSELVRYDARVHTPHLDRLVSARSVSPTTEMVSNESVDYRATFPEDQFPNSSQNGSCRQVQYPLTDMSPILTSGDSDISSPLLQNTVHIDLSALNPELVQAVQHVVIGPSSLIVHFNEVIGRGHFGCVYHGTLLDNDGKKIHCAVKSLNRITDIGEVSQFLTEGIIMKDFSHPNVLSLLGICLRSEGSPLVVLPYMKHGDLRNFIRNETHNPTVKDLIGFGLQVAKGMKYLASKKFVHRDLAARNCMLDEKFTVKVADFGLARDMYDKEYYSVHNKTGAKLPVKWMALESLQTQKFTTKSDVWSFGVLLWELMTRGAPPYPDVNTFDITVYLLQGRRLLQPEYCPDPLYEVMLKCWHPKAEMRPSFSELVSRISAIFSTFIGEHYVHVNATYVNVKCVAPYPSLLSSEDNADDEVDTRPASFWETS

Chain of MET (c-Met, hepatocyte growth factor receptor) on cells (human) (P08581 25-1390 limits assumed, form in doubt): as the sequence (P08581 25-1390, change not shown) above

IC50 (read off the curve); blocking of HGF-dependent SRE-driven luciferase signal in HEK293T cells [1] [nM] | IC50 (read off the curve); blocking of HGF-induced SRE-luciferase signal in HEK293/SRE-Luc cells [2] [nM] | Relative Cell Growth (n = 3), NCI-H596 cells in soft agar, 100 ng/mL HGF, two weeks (normalized to control) [3] | Substance
0.4 | 0.06 |  | monovalent anti-MET antibody (made with the heavy and light chain variable sequences of MetMab)
 |  | 7.88 | hepatocyte growth factor (from UniProt P14210 32-728) (ligand)
